The target in one assay is T1, FOS^MUT3AA-mDHFR_B.
T1 chain: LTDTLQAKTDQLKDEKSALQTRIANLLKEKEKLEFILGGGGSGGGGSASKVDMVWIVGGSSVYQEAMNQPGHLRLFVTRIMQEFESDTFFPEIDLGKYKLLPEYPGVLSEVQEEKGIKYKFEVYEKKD
Kind of assay: cell-based or functional assay.

A further assay concerns the target T2, sFOS-mDHFR_B (murine).
T2 chain: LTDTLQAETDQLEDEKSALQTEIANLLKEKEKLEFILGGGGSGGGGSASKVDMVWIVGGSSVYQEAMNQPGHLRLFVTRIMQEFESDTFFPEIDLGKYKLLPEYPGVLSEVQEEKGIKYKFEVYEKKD
Kind of assay: cell-based or functional assay.

The next assay has as its target T3, sFOS^MUT8AA-mDHFR_B.
T3 chain: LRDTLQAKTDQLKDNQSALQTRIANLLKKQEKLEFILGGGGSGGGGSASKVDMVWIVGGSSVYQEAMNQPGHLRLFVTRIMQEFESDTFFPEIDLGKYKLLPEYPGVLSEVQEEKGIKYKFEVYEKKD
Description: cell-based or functional assay.

In assay [1] the target is T4, FOS^MUT4AA-mDHFR_B.
T4 chain: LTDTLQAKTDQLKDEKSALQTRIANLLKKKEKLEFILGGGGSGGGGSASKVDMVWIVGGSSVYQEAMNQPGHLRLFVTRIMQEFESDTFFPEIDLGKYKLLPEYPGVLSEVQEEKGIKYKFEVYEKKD
Description: cell-based or functional assay.

In assay [2] the target is T5, FOS^WT-mDHFR_B.
T5 chain: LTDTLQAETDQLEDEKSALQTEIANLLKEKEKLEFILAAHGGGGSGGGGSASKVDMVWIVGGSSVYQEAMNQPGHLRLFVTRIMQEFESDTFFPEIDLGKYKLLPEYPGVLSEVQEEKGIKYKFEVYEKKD
Kind of assay: cell-based or functional assay.

Assay [3] concerns the target T5, FOS^WT-mDHFR_B. Description: split-DHFR complementation, 100 nM MTX 10 days, FACS. The text has this: (§1) FIGS. 44A-44D show the results of MTX selection of double engineered BC76 T cells. Activated human primary T cells isolated from a buffy coat, BC76, were double-infected with retroviral vectors encoding an MTX-resistant murine DHFR^FS mutant (mDHFR) split into an N-terminal and C-terminal protein half (vector A and B), fused to heterodimerizing JUN-FOS leucine zippers. JUN^WT depicts a wildtype JUN leucine zipper, FOS^WT depicts a wildtype FOS leucine zipper, JUN^MUT3AA depicts a mutant JUN leucine zipper containing three acidic amino acids from FOS, FOS^MUT3AA depicts a mutant FOS leucine zipper containing three basic amino acids from JUN, JUN^MUT4AA depicts a mutant JUN leucine zipper containing four acidic amino acids from FOS, FOS^MUT4AA depicts a mutant FOS leucine zipper containing four basic amino acids from JUN. Vector A and B also encoded a Ly6G and CD90.2 transduction marker, respectively. Starting at 4 days post transduction, cells were either left untreated (row 1), or were treated with 100 nM MTX for 10 days (row 2), after which enrichment of double transduced cells was measured by FACS analysis.

The target of another assay is T6, FOS-mDHFRmt_B.
T6 chain: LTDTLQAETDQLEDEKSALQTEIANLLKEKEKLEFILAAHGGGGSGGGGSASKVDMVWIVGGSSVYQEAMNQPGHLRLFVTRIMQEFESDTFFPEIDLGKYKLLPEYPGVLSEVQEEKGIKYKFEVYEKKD
Description: cell-based or functional assay.

The target in assay [4] is T4, FOS^MUT4AA-mDHFR_B. Description: split-DHFR complementation, 100 nM MTX 10 days, FACS.
Description: as §1

The target of another assay is T7, FOS-mDHFRmt_B-2A.
T7 chain: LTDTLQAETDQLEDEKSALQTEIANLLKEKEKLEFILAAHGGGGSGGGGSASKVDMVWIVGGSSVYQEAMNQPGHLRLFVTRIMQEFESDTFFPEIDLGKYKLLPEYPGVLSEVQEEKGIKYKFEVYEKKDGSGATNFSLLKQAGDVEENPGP
Description: cell-based or functional assay.

In the assay with FOS^MUT3AA-mDHFR_B, sJUN-mDHFR_A had a fold enrichment of double transduced T cells (FACS), shorter zippers, donor A, 100 nM MTX 6 days (FIG. 49) of 1.7 fold and a fold enrichment of double transduced T cells (FACS), shorter zippers, donor B, 100 nM MTX 6 days (FIG. 49) of 1.4 fold. Besides, in the assay with sFOS-mDHFR_B, the fold enrichment of double transduced T cells (FACS), 100 nM MTX 6 days (FIGS. 51A-51B) came to 12.3 fold; the fold enrichment of double transduced T cells (FACS), shorter zippers, donor A, 100 nM MTX 6 days (FIG. 49) was 66 fold; the fold enrichment of double transduced T cells (FACS), shorter zippers, donor B, 100 nM MTX 6 days (FIG. 49) is 7.6 fold. The fold enrichment of double transduced T cells (FACS), 100 nM MTX 6 days (FIGS. 51A-51B) with sFOS^MUT8AA-mDHFR_B was 1.5 fold. For the same molecule, in the assay with FOS^MUT4AA-mDHFR_B [1], the fold enrichment of double transduced T cells (FACS), shorter zippers, donor A, 100 nM MTX 6 days (FIG. 50) came out at 1.5 fold and the fold enrichment of double transduced T cells (FACS), shorter zippers, donor B, 100 nM MTX 6 days (FIG. 50) stood at 1.2 fold.

B1: JUN^MUT3AA-mDHFR_A (other)
chain: RIARLEEEVKTLEAQNSELASTANMLEEQVAQLKQKVGGGGSGGGGSMVRPLNCIVAVSQNMGIGKNGDFPWPPLRNESKYFQRMTTTSSVEGKQNLVIMGRKTWFSIPEKNRPLKDRINIVLSRELKEPPRGAHFLAKSLDDALRLIEQPEL
Take B1: in the assay with FOS^MUT3AA-mDHFR_B, the “fold enrichment of double transduced T cells (FACS), BC54, 100 nM MTX 2 days” value (from here on “fold enrichment … 100 nM MTX 2 days”) is 5.6 fold; the “fold enrichment of double transduced T cells (FACS), BC76, 100 nM MTX 10 days” value (“fold enrichment … 100 nM MTX 10 days” below) turned out to be 72 fold; the “fold enrichment of double transduced T cells (FACS), donor B, 100 nM MTX 4 days” value (from here on “fold enrichment … 100 nM MTX 4 days”) was determined as 10.5 fold; the “fold enrichment of double transduced T cells (FACS), shorter zippers, donor A, 100 nM MTX 6 days (FIG. 49)” value amounted to 49 fold. Also, the “fold enrichment of double transduced T cells (FACS), shorter zippers, donor B, 100 nM MTX 6 days (FIG. 49)” value in the assay with FOS^MUT3AA-mDHFR_B came to 6.6 fold. In the assay with FOS^WT-mDHFR_B [2], the “fold enrichment … 100 nM MTX 2 days” value amounted to 3.9 fold; the “fold enrichment … 100 nM MTX 10 days” value stood at 19 fold; the “fold enrichment … 100 nM MTX 4 days” value stood at 11.2 fold. Besides, in the assay with sFOS-mDHFR_B, the fold enrichment of double transduced T cells (FACS), shorter zippers, donor A, 100 nM MTX 6 days (FIG. 49) was determined as 3.2 fold and the fold enrichment of double transduced T cells (FACS), shorter zippers, donor B, 100 nM MTX 6 days (FIG. 49) stood at 1.5 fold.

B2: sJUN^MUT8AA-mDHFR_A (other)
chain: TIARLEEEVKTLEAKESELASTANMLEEKVAQLEQKVGGGGSGGGGSMVRPLNCIVAVSQNMGIGKNGDFPWPPLRNESKYFQRMTTTSSVEGKQNLVIMGRKTWFSIPEKNRPLKDRINIVLSRELKEPPRGAHFLAKSLDDALRLIEQPEL
On to B2, for which the “fold enrichment of double transduced T cells (FACS), 100 nM MTX 6 days (FIGS. 51A-51B)” value with sFOS-mDHFR_B was 0.9 fold; with sFOS^MUT8AA-mDHFR_B, 2.2 fold.

B3: JUN^MUT4AA-mDHFR_A (other)
chain: RIARLEEEVKTLEAQNSELASTANMLEEQVAQLEQKVGGGGSGGGGSMVRPLNCIVAVSQNMGIGKNGDFPWPPLRNESKYFQRMTTTSSVEGKQNLVIMGRKTWFSIPEKNRPLKDRINIVLSRELKEPPRGAHFLAKSLDDALRLIEQPEL
For B3, the “fold enrichment … 100 nM MTX 10 days” value with FOS^WT-mDHFR_B [2] is 2.6 fold. In the assay with sFOS-mDHFR_B, this molecule returned a fold enrichment of double transduced T cells (FACS), shorter zippers, donor A, 100 nM MTX 6 days (FIG. 50) of 2.2 fold and a fold enrichment of double transduced T cells (FACS), shorter zippers, donor B, 100 nM MTX 6 days (FIG. 50) of 1.5 fold. Besides, in the assay with FOS^MUT4AA-mDHFR_B [1], the “fold enrichment of double knock-in T cells (FACS), BC78, 100 nM MTX 6 days” value stood at 54 fold; the “fold enrichment … 100 nM MTX 10 days” value was 70 fold; the “fold enrichment of double transduced T cells (FACS), shorter zippers, donor A, 100 nM MTX 6 days (FIG. 50)” value was found to be 39 fold; the “fold enrichment of double transduced T cells (FACS), shorter zippers, donor B, 100 nM MTX 6 days (FIG. 50)” value came to 4.7 fold. Moreover, in the assay with FOS^WT-mDHFR_B [3], the binding result was “no binding”.

B4: JUN-mDHFRmt_A (other)
chain: RIARLEEKVKTLKAQNSELASTANMLREQVAQLKQKVMNHGGGGSGGGGSMVRPLNCIVAVSQNMGIGKNGDFPWPPLRNESKYFQRMTTTSSVEGKQNLVIMGRKTWFSIPEKNRPLKDRINIVLSRELKEPPRGAHFLAKSLDDALRLIEQPEL
Regarding B4, in the assay with FOS-mDHFRmt_B, the “fold enrichment of double transduced T cells (FACS), BC45, 50 nM MTX 4 days” value was found to be 4.4 fold; the “fold enrichment of double transduced T cells (FACS), BC45, further 100 nM MTX 3 days, row 2” value stood at 11.3 fold; the “fold enrichment of double transduced T cells (FACS), BC45, further 100 nM MTX 3 days, row 3” value is 94 fold; the “fold enrichment of double transduced T cells (FACS), BC46, 50 nM MTX 4 days” value came out at 6.2 fold. For the same molecule, in the assay with FOS-mDHFRmt_B, the “fold enrichment of double transduced T cells (FACS), BC46, further 100 nM MTX 3 days, row 2” value was found to be 4 fold and the “fold enrichment of double transduced T cells (FACS), BC46, further 100 nM MTX 3 days, row 3” value stood at 23.2 fold.

B5: JUN^WT-mDHFR_A (other)
chain: RIARLEEKVKTLKAQNSELASTANMLREQVAQLKQKVMNHGGGGSGGGGSMVRPLNCIVAVSQNMGIGKNGDFPWPPLRNESKYFQRMTTTSSVEGKQNLVIMGRKTWFSIPEKNRPLKDRINIVLSRELKEPPRGAHFLAKSLDDALRLIEQPEL
As to B5, in the assay with FOS^MUT3AA-mDHFR_B, the “fold enrichment … 100 nM MTX 2 days” value worked out at 1.9 fold; the “fold enrichment … 100 nM MTX 10 days” value stood at 3.1 fold; the “fold enrichment … 100 nM MTX 4 days” value is 4 fold. For the same molecule, in the assay with FOS^WT-mDHFR_B [2], the “fold enrichment … 100 nM MTX 2 days” value is 6.8 fold; the “fold enrichment … 100 nM MTX 10 days” value is 132 fold; the “fold enrichment … 100 nM MTX 4 days” value came to 15.5 fold. The “fold enrichment … 100 nM MTX 10 days” value with FOS^MUT4AA-mDHFR_B [1] was found to be 1.4 fold. In addition, in the assay with FOS^MUT4AA-mDHFR_B [4], the binding result is listed as “no binding”.

B6: JUN-mDHFRmt_A-2A (other)
chain: RIARLEEKVKTLKAQNSELASTANMLREQVAQLKQKVMNHGGGGSGGGGSMVRPLNCIVAVSQNMGIGKNGDFPWPPLRNESKYFQRMTTTSSVEGKQNLVIMGRKTWFSIPEKNRPLKDRINIVLSRELKEPPRGAHFLAKSLDDALRLIEQPELGSGATNFSLLKQAGDVEENPGP
B6: in the assay with FOS-mDHFRmt_B-2A, the “fold enrichment of double transduced T cells (FACS), BC45, 25 nM MTX 4 days” value came out at 5.3 fold; the “fold enrichment of double transduced T cells (FACS), BC45, 50 nM MTX 4 days” value is 10.5 fold; the “fold enrichment of double transduced T cells (FACS), BC45, further 100 nM MTX 3 days, row 2” value was determined as 15.5 fold; the “fold enrichment of double transduced T cells (FACS), BC45, further 100 nM MTX 3 days, row 3” value amounted to 18.9 fold. For the same molecule, in the assay with FOS-mDHFRmt_B-2A, the “fold enrichment of double transduced T cells (FACS), BC46, 25 nM MTX 4 days” value worked out at 3.6 fold; the “fold enrichment of double transduced T cells (FACS), BC46, 50 nM MTX 4 days” value worked out at 8.3 fold; the “fold enrichment of double transduced T cells (FACS), BC46, further 100 nM MTX 3 days, row 2” value was found to be 10.4 fold; the “fold enrichment of double transduced T cells (FACS), BC46, further 100 nM MTX 3 days, row 3” value amounted to 16.9 fold.

For the origin of these results see patent publication US20220041999A1 (NEOGENE THERAPEUTICS B V, published 2022).
